Assay results from patent US20220259593A1, “CONTROL OF MAMMALIAN GENE DOSAGE USING CRISPR” (The Regents of the University of California, priority 2019, published 2022).

tested on: K562 CRISPRi cells; assay: Constant region variant library pooled growth screen, K562; format: cell-based, human; conditions: sgRNA constant region variants; activity relative to the original, un-modified constant region cr995
Method in brief: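 Growth screens in K562 CRISPRi cells were harvested 4-8 days post-selection at >2000× library coverage. Each variant's phenotype was referenced to the unmodified constant region with the same targeting sequence.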

Molecule	Mean relative activity
cr936 (nucleic acid, listed as DNA, chemistry not fully specified) guide: GTTTAAGAGCTAAGCTGGAAACAGCATAGCAAGTTTAAATAAGGCTAGTCCGTTATCAACTTGAAAAAGTGTCACCGAGTCGGTGAT	1.072
cr333 (nucleic acid, listed as DNA, chemistry not fully specified) guide: GTTTAAGAGCTAAGCTGGAAACAGCATAGCAAGTTTAAATAAGGCTAGTCCGTTATCAAGGTGAAAACCTGGCACCGAGTCGGTGCT	1.072

same assay, conditions: sgRNA constant region variants; relative to the original, un-modified constant region cr995 (= 1)

Molecule	Mean relative activity
cr980 (nucleic acid, listed as DNA, chemistry not fully specified) guide: GTTTAAGAGCTAAGCTGGAAACAGCATAGCAAGTTTAAATAAGGCTAGTCCGCTATCAACTTGAAAAAGTGGCACCGAGTCGGTGCT	1.014
cr606 (nucleic acid, listed as DNA, chemistry not fully specified) guide: GTTTAAGAGCTAAGCTGGAAACAGCATAGCAAGTTTAAATAAGGCTAGTCCGTTATCAAGTTGAAAAACTGGCCTCGAGTCGAGGCT	1.007
cr968 (nucleic acid, listed as DNA, chemistry not fully specified) guide: GTTTAAGAGCTAAGCTGGAAACAGCATAGCAAGTTTAAATAAGGCTAGTCCGTTATCAACTTGAAAAAGTGGAACCGAGTCGGTTCT	1.004
cr945 (nucleic acid, listed as DNA, chemistry not fully specified) guide: GTTTAAGAGCTAAGCTGGAAACAGCATAGCAAGTTTAAATAAGGCTAGTCCGTTATCAACTTGAAGAAGTGGCACCGATTCGGTGCT	1.002
cr428 (nucleic acid, listed as DNA, chemistry not fully specified) guide: GTTTAAGAGCTAAGCTGGAAACAGCATAGCAAGTTTAAATAAGGCTAGTCCGTTATCAACTTGCATAAGTGGCACCGAGTCGGTGCT	1.013
cr139 (nucleic acid, listed as DNA, chemistry not fully specified) guide: GTTTAAGAGCTAAGCTGGAAACAGCATAGCAAGTTTAAATAAGGCTAGTCCGTTATCAACTTGAAAAAGTGGCAACGAGTCGTTGCT	1.006
cr656 (nucleic acid, listed as DNA, chemistry not fully specified) guide: GTTTAAGAGCTAAGCTGGAAACAGCATAGCAAGTTTAAATAAGGCTAGTCCGTTATCAACTTGAAAAAGTGGCCCCGAGTCGGGGCT	1.004
cr690 (nucleic acid, listed as DNA, chemistry not fully specified) guide: GTTTAAGAGCTAAGCTGGAAACAGCAGAGCAAGTTTAAATAAGGCTAGTCCGTTATCAACTTGAAAAAGTGGCACCGAGTCGGTGCT	1.011
cr715 (nucleic acid, listed as DNA, chemistry not fully specified) guide: GTTTAAGAGCTAAGCTGGAAACAGCATAGCGAGTTTAAATAAGGCTAGTCCGTTATCAACTTGAAAAAGTGGCACCGAGTCGGTGCT	1.008
cr632 (nucleic acid, listed as DNA, chemistry not fully specified) guide: GTTTAAGAGCTAAGCTGGAAACAGCATAGCAAGTTTAAATAAGGCTAGTCCGTTATCAACTTGCAGAAGTGGCACCGAGTCGGTGCT	1.008
cr155 (nucleic acid, listed as DNA, chemistry not fully specified) guide: GTTTAAGAGCTAAGCTGGAAACAGCATAGCAAGTTTAAATAAGGCTAGTCCGTTATCAATTGGAAACAATGGCATCGAGTCGATGCT	1.003
cr144 (nucleic acid, listed as DNA, chemistry not fully specified) guide: GTTTAAGAGCTAAGCTGGAAACAGCATAGCAAGTTTAAATAAGGCTAGTCCGTTATCATGTAGAAATACAGGCACCGAGTCGGTGCT	1.007
cr037 (nucleic acid, listed as DNA, chemistry not fully specified) guide: GTTTAATCGCTAAGCTGGAAACAGCATAGCAAGTTTAAATAAGGCTAGTCCGTTATCAACTTGAAAAAGTGGCACCGAGTCGGTGCT	1.01
cr377 (nucleic acid, listed as DNA, chemistry not fully specified) guide: GTTTAAGAGCTAAGCTGGAAACAGCATAGCAAGTTTAAATAAGGCTAGTCCGTTAGCAACTTGAAAAAGTGGCACCGAGTCGGTGCT	1.012
cr423 (nucleic acid, listed as DNA, chemistry not fully specified) guide: GTTTAAGAGCTAAGCTGGAAACAGCATAGCAAGTTTAAATAAGGCTAGTCCGTTATCAGCTTGAAAAAGCGGTACCGAGTCGGTACT	1.012
cr128 (nucleic acid, listed as DNA, chemistry not fully specified) guide: GTTTAAGAGCTAAGCTGGAAACAGCATAGCAAGTTTAAATAAGGCTAGTCCGTTATCAGCTTGAAAAAGCGGCACAGAGTCTGTGCT	1.002
cr232 (nucleic acid, listed as DNA, chemistry not fully specified) guide: GTTTAAGAGCTAAGCTGGAAACAGCACAGCAAGTTTAAATAAGGCTAGTCCGTTATCAACTTGAAAAAGTGGCACCGAGTCGGTGCT	1.006
cr559 (nucleic acid, listed as DNA, chemistry not fully specified) guide: GTTTAAGAGCTAAGCTGGAAACAGCATAGCAAGTTTAAATAAGGCTAGTCCGTTATCAACTTGAAAAAGTGGTACCGAGTCGGTACT	1.007
cr672 (nucleic acid, listed as DNA, chemistry not fully specified) guide: GTTTAAGAGCTAAGCTGGAAACAGCATAGCAAGTTTAAATAAGGCTAGTCCGTTATCAACTTGAAAAAGTGGCATCGAGTCGGTGCT	1.005
cr771 (nucleic acid, listed as DNA, chemistry not fully specified) guide: GTTTAAGAGCTAAGCTGGAAACAGCATAGCAAGTTTAAATAAGGCTAGTCCGTTATCAACTTGAGAAAGTGCCACCGAGTCGGTGGT	1.007
cr510 (nucleic acid, listed as DNA, chemistry not fully specified) guide: GTTTAAGAGCTAAGCTGGAAACAGCATAGCAAGTTTAAATAAGGCTAGTCCGTTATCATGTTGAAAAACAGGCACCGAGTCGGTGCT	1.007
cr365 (nucleic acid, listed as DNA, chemistry not fully specified) guide: GTTTAAGAGCTAAGCTGGAAACAGCATAGCAAGTTTAAATAAGGCTAGTCCGTAATCAACTTGAAAAAGTGGCACCGAGTCGGTGCT	1.007
cr348 (nucleic acid, listed as DNA, chemistry not fully specified) guide: GTTTAAGAGCTAAGCTGGAAGCAGCATAGCAAGTTTAAATAAGGCTAGTCCGTTATCAACTTGAAAAAGTGGCACCGAGTCGGTGCT	1.008
cr642 (nucleic acid, listed as DNA, chemistry not fully specified) guide: GTTTAAGAGCTAAGCTGGAAACAGCATAGCATGTTTAAATAAGGCTAGTCCGTTATCAACTTGAAAAAGTGGCACCGAGTCGGTGCT	1.008
cr901 (nucleic acid, listed as DNA, chemistry not fully specified) guide: GTTTAAGAGCTAAGCTGGAAACAGCATAGCAAGTTTAAATAAGGCTAGTCCGTTATCAACTTGAAGAAGTGGCACCGAGTCGGTGCT	1.003
cr433 (nucleic acid, listed as DNA, chemistry not fully specified) guide: GTTTAAGAGCTAAGCTGGAAACAGCATAGCAAGTTTAAATAAGGCTAGTCCGTTATCAACTTGAATAAGTGGCACCGAGTCGGTGCT	1.012
cr393 (nucleic acid, listed as DNA, chemistry not fully specified) guide: GTTTAAGAGCTAAGCTGGAAACAGCATAGCAAGTTTAAATAAGGCTAGTCCGTTATCAACTTGACAAAGTGGCACCGAATCGGTGCT	1.004
cr851 (nucleic acid, listed as DNA, chemistry not fully specified) guide: GTTTAAGAGCTAAGCTGGAAACAGCATAGCAAGTTTAAATAAGGCTAGTCCGTTATCAGCTTGAAAAAGCGGCACCAAGTTGGTGCT	1.002
